From patent US20160129078A1, “Rhomboid Proteins and Uses Thereof” (Queen's University at Kingston, priority 2014, published 2016)

B1: At1g74130 S: 6/7 S-form splice variant of Arabidopsis At1g74130 rhomboid protein (protein, listed as Arabidopsis thaliana)
chain: MHAIFCRRVAVGCSSPQLTKLVTKQASQSRHSLSHLLPFDLSSRFVPPYVVSRSARVHGFFAGKLGNTNLKLKFGNVMESRAGFFSSELPSHGFESGGFTGFQKRGWKSWINGANGVVFGLVIANAAVFTMWRVLGKDNMWMVKNFMLSRYSFMTGRIHTLITSGFSHVGATHIILNMMGLCYFGARIARSFGPRYLLKLYFAGALGGSVFFLSSHALSVISLKGQRVVPKDQLKVPIGKLGANGPVYAITLLDMLLYPKVTTYFGLMLRVPVFAVRESIA
B2: At1g74130 M: 7/8 M-form splice variant of Arabidopsis At1g74130 rhomboid protein (protein, listed as Arabidopsis thaliana)
chain: MHAIFCRRVAVGCSSPQLTKLVTKQASQSRHSLSHLLPFDLSSRFVPPYVVSRSARVHGFFAGKLGNTNLKLKFGNVMESRAGFFSSELPSHGFESGGFTGFQKRGWKSWINGANGVVFGLVIANAAVFTMWRVLGKDNMWMVKNFMLSRYSFMTGRIHTLITSGFSHVGATHIILNMMGLCYFGARIARSFGPRYLLKLYFAGALGGSVFFLSSHALSVISLKGQRVVPKDQLKVPIGKLGANGPVYAITLLDMLLYPKVTTYFGLMLRVPVFAGIYSLGLNIIKMLEVCMMGKTTIP

Tests used:
[1] = tested on: yeast; assay: Sensitization of yeast to fungicidal agents AmB and Nys; format: cell-based, Saccharomyces cerevisiae; conditions: for yeast cell survival, variant added alone: 10 ug protein alone in elution buffer, no fungicide; for yeast survival, fungicidal agents together with variant protein: 10 ug protein with sub-lethal AmB and/or Nys
Protocol: Experiments were conducted to assess the ability of the Arabidopsis At1g74130 proteins or variants to sensitize yeast to the antifungal agents Amphotericin B (AmB) and Nystatin (Nys). Overall, these assays were conducted in a manner similar to that designed for bacteria (Example 9). In addition to the components mixed with the added proteins or variants, the antifungal AmB was also utilized as part of the delivery system. The AmB drug contains small quantities of the detergent deoxycholate, which may also assist in the delivery of proteins into the cell, as well as function as a pore forming agent itself. […] The effective co-delivery sub-lethal concentrations of the two antifungal agents or protein had little or no effect when provided individually. FIGS. 17 and 18 show results of the yeast sensitivity assays for AmB and Nys. […] In FIG. 17, the “Yeast Control” bars represent yeast cells given mock treatments with culture media (YPD) alone, YPD plus 1% AmB, YPD plus 0.5% Nys, and YPD plus 1% AmB and 0.5% Nys, respectively. The “BSA Control” bars represent another set of mock treatments with yeast cells. This set utilized the same set-up as the Yeast Control set but with added control bovine serum albumin proteins (BSA) (dissolved in the elution buffer, the same buffer used for the purification of the recombinant At1g74130 rhomboid proteins or variants). These assays represent another variation of negative controls for rhomboid protein. The “Elution Control” bars represent yeast cells mock treated using the same set-up as in the Yeast Control set but with added elution buffer alone. This variation of control assays was designed to assess for potential toxic impacts when combining elution buffer and the listed drugs, as well any effects originating from components of the elution buffer itself. The composition of the elution buffer is provided above in Example 5. With the exception of Nys, these treatments represent the first step and occur for 45 minutes before the second step when exposure to fungicides takes place. Within each set of bars, where applicable, the second 15-minute step treatment occurred with a sub-lethal dose of Nys. After a total of one hour, the treated yeast cells were plated on non-selective YPD agar plates. Plates were grown 2-3 days at 27-30° C. and assessed for surviving cell numbers (measuring cell death). Images were also taken to document cell and colony growth characteristics.
In the experimental assays, the sensitizing properties of At1g74130 or variants (sensitizing variants) were tested by adding 10 ug protein (At1g74130 or variants in elution buffer) to yeast cells (300-500 cells). To reiterate in all cases, the components were added to cultures and mixed for one hour, where Nys was added and incubated for the last 15 minutes of the treatment. Pre-treatment was designed to permit AmB and At1g74130 proteins to establish and work prior to adding Nys. After the one hour incubation, 500 cells were plated on non-selective YPD agar media and grown for 48 hours at 30′C.
The sub-lethal levels of fungicides to use in these assays were determined using dosage experiments. These assays were conducted on yeast cells without added rhomboid proteins or variants. The dosages of AmB tested ranged from 0 to 5% (v/v). […] Likewise, the Nys level was determined using a range of 0.5 to 2.5%. Yeast cells were treated for one hour with fungicides in a total volume of 400 μl YPD media before plating.
Since both the AmB buffer contained small quantities of detergent (deoxycholate being the main one), an experiment was done in which different amounts (1% and 10%) of deoxycholate were added to yeast cells to ascertain any effects. Adding deoxycholate had little effect on yeast.
This set of yeast assays was conducted in the same manner described above (Example 13) and employed the same controls and combinations. […]

[2] = tested on: Pseudomonas aeruginosa; assay: Impairment of lipase secretion and growth on minimal media-olive oil plates; format: cell-based; conditions: for growth on minimal media-olive oil agar plates: 10 ug protein, with or without 5% DMSO, olive oil as only carbon source
From the text: Experiments were thus conducted to assess the ability of At1g74130 proteins or variants to impair the protein secretion process of Pseudomonas aeruginosa, a gram-negative bacterium known to be pathogenic and producers of biofilms. Any impact on the protein secretion mechanism may alter pathogenicity, growth, survival, biofilm production, and sensitivity to antimicrobial drugs. The design of the Pseudomonas assays was similar to that used for bacteria in the above examples, results, and figures. Treated Pseudomonas cells were plated onto minimal media supplemented with olive oil as the only external carbon source. The minimal media-olive oil plates consisted of the following: 50 mM MOPS, pH 7.5; 40 mM K2HPO4; 25 mM NaH2PO4; 7.5 mM (NH4)2SO4; 0.4 mM MgSO4; 0.5% (v/v) olive oil; 40 ug/ml neutral red; 20 ul trace elements (Mn, Co, Zn, Cu, and Mo); and 1.5% agar. Pseudomonas cells need to express and secrete lipases in order to break down the olive oil and allow the acquisition of carbon from the media. Cells that are impaired with respect to protein secretion will not be able to break down the olive oil for acquisition and permit subsequent growth.
Control assays were conducted on cells without added At1g74130 or variants (sensitizer variants) to determine the delivery system to use. Control assays were also conducted to determine if the 5% (v/v) DMSO delivery system used for E. coli exerted any effect. Pseudomonas cells were mock treated with Luria Broth (LB) media or 5% (v/v) DMSO for 45-90 minutes prior to plating on minimal media supplemented with olive oil as the sole external carbon source. Total volumes of 200 μl were used in these assays. The plates were allowed to grow overnight to assess the level of growth or colony formation.
In the experimental assays, the utility of At1g74130 or variants in the Pseudomonas was tested by adding 10 ug protein (At1g74130 or variants) to cells (600-800 cells) incubated for 45 minutes at 37° C., shaken, and followed by another 45 minute period at 37° C. […]

[3] = tested on: bacteria; assay: Sensitization of bacteria to tetracycline by exogenous rhomboid protein; format: cell-based, Escherichia coli; conditions: tetracycline 15 ug/ml
Protocol: Experiments were conducted to assess the ability and the utility of At1g74130 protein variants to sensitize bacteria to another antibiotic, tetracycline. In bacteria, tolerance or resistance to tetracycline is facilitated by a mechanism different from the ampicillin resistance assayed in Example 9. Unlike the breakdown of ampicillin outside the bacterial cells by secreted ampicilliase, tetracycline resistance in bacteria is based largely on the continual and effective pumping of tetracycline out of the cell by proteinaceous membrane pumps. To assess the utility of the At1g74130 for sensitizing bacteria to tetracycline, these bacterial assays were conducted in the same manner described in Example 9. The same controls and combinations were used. The final treatment level of tetracycline used in place of the ampicillin treatment was 15 ug/ml.
Experiments were conducted to assess the ability and the utility of a human rhomboid type or variant to sensitize bacteria to tetracycline. These bacterial assays were conducted in the same manner described above for the other rhomboid variants and in Example 9. The same controls and combinations were used. The At1g74130 L was the control for UBAC2 in this set of assays. The previously observed behaviours and responses were not observed for UBAC2 in this setting with the antibiotic tetracycline (FIG. 16).

Molecule	yeast cell survival, variant added alone [1]	yeast survival, fungicidal agents together with variant protein [1]	growth on minimal media-olive oil agar plates [2]	sensitization of bacteria to tetracycline [3]	lipase secretion ([2]; assay with elution buffer and variant)
B1	no effect	dramatically reduced yeast survival	most potent impact	no activity	–
B2	no effect	dramatically reduced yeast survival	reduced	increased the sensitivity	moderate impairment of lipase secretion
